{
  "source": "patent US20130217865A1",
  "about": "(VIVENTIA BIOTECHNOLOGIES, published 2013)",
  "binders": {"B1": {"name": "Negative control peptide: Biotin-AVEDRKPSGLN (peptide)", "peptide": "Biotin-AVEDRKPSGLN"}, "B2": {"name": "Peptide 1: Biotin-STDRIPATNMD (peptide)", "peptide": "Biotin-STDRIPATNMD"}, "B3": {"name": "VB1-008 monoclonal antibody (antibody, human IgG1, V domains shown)", "VH": "QVQLQELGPRLVRPSQTLILTCTVSGGSVSGDEYYWSWLRQTPGKGLEWIGYMSYRGSSYYSPSLQSRVTIAVDRSKNEFSLKLTSVTAADAAVYFCARKYCGGDCRSGFDIWGRGTMVTVAS", "VL": "YELTQPPSVSVSPGQKAFITCSGDNLGNKYVCWYQQKPGQSPVLVIYEDTKRPSGIPERFSASNSGNTATLTISGTQPIDEADYYCQAWDSRTEIFGTGTKVTVLS", "notes": "also called 17P2/C12"}},
  "key": {"[1]": {"biological_target": "B3", "experiment": "peptide competition, flow cytometry on MDA-MB-435S cells"}, "[2]": {"biological_target": "B2", "experiment": "ELISA on peptide-coated plates", "protocol": "(§1) Peptide solutions were diluted 1-in-100 with Hank's buffered saline solution (HBSS) containing 0.5% formaldehyde. 10Q̂iL of diluted peptide solution was distributed to each well in a 96-well plate. The plates were incubated at room temperature for 1 hour. The supernatant was removed and the plates were placed uncovered in a 37° C. incubator for 16-18 hours. The peptide-coated plates were placed in plastic bags and stored at 2-8° C. until required.\n(§2) Following overnight incubation of the peptide-coated plates, 300 μL of wash buffer (PBS containing 0.5% Tween20) was manually added to each plate, with the help of a repeator pipette equipped with an 8-channel adaptor. The contents of the plates were discarded; the plates were inverted and patted on 3-4 inches of paper towel to remove excess liquid. The above steps were repeated two more times.\n(§3) The plates were washed as previously described with the wash buffer (PBS containing 0.5% Tween 20). The plates were incubated with 1:6000 dilution of anti-human IgG-HRP for one hour at room temperature. The plates were washed as previously described. 100 μL of TMB substrate (TMB peroxidase substrate KPL cat #50-76-00) was added to each well and incubated for 5-10 minutes in the dark. The reaction was terminated by adding 100 μL of 1M phosphoric acid to each well. The optical density was measured at 450 nm using an ELISA plate reader."}, "[3]": {"biological_target": "B1", "experiment": "ELISA on peptide-coated plates", "protocol": "as §1, §2, §3"}, "[4]": {"biological_target": "T1, Peptide 3: Biotin-ATNMDSSHSIT (human)", "T1 peptide": "Biotin-ATNMDSSHSIT", "experiment": "ELISA on peptide-coated plates, 75 µg/mL VB1-008", "protocol": "as §1, §3"}},
  "note": "Where no end group is shown, it is not given here. The star is where a group is joined. Biotin = O=C1N[C@H]2[C@H](CS[C@H]2CCCCC(=O)*)N1",
  "data": [
    {"binder": "B1", "values": [
      {"measurement": "binding result", "setting": "[1]", "result": "no binding"}
    ]},
    {"binder": "B2", "values": [
      {"measurement": "binding result", "setting": "[1]", "result": "no binding"}
    ]},
    {"binder": "B3", "values": [
      {"measurement": "binding result", "setting": "[2]", "result": "no binding (tested: 75 µg/mL VB1-008)"},
      {"measurement": "binding result", "setting": "[3]", "result": "no binding (tested: 75 µg/mL VB1-008)"},
      {"measurement": "binding result", "setting": "[4]", "result": "binds"}
    ]}
  ]
}
